Measured values as given in paper PMC9482650, “Quantitative fragmentomics allow affinity mapping of interactomes” (Nature Communications, 2022).

T1: DFNB31_2, Q9P202
T1 sequence (Q9P202 274-371, limits assumed, looked up): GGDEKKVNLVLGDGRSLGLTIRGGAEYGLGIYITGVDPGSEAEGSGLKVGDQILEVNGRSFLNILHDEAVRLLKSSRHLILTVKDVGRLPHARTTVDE

T2: RADIL, Q96JH8
T2 sequence (Q96JH8 971-1071, limits assumed, looked up): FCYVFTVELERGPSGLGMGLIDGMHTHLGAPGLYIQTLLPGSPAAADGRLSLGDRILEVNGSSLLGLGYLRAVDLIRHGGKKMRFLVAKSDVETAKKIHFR

T3: DLG3_3, Q92796
T3 sequence (Q92796 374-475, limits assumed, looked up): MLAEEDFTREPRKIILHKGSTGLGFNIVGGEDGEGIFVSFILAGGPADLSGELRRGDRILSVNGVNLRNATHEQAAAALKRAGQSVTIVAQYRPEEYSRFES

T4: DFNB31_3, Q9P202
T4 sequence (Q9P202 811-907, limits assumed, looked up): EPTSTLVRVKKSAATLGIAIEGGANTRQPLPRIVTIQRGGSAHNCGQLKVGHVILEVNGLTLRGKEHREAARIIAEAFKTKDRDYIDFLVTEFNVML

T5: MPP7, Q5T2T1
T5 sequence (Q5T2T1 134-230, limits assumed, looked up): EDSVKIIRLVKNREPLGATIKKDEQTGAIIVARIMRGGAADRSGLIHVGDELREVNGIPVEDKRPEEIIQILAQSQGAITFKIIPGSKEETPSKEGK

T6: DLG3_2, Q92796
T6 sequence (Q92796 221-321, limits assumed, looked up): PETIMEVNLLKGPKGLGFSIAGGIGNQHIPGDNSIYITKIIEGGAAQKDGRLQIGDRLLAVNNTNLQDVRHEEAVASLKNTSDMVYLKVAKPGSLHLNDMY

T7: LIN7C, Q9NUP9
T7 sequence (Q9NUP9 88-185, limits assumed, looked up): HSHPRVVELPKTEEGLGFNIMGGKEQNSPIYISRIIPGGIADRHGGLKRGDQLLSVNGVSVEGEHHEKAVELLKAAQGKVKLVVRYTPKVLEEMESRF

T8: HTRA4, P83105
T8 sequence (P83105 378-476, limits assumed, looked up): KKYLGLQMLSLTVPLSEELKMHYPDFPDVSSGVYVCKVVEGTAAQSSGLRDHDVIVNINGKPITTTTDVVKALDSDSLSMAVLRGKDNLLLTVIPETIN

T9: PTPN13_1, Q12923
T9 sequence (Q12923 1088-1188, limits assumed, looked up): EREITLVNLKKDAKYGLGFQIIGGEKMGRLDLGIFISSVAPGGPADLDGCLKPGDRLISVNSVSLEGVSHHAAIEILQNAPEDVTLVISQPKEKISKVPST

T10: TX1BP3, O14907
T10 sequence (O14907 10-122, limits assumed, looked up): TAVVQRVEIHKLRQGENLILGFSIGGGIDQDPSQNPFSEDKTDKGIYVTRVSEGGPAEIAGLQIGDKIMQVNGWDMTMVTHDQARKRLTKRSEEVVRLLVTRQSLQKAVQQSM

T11: PDZD2_2, O15018
T11 sequence (O15018 329-429, limits assumed, looked up): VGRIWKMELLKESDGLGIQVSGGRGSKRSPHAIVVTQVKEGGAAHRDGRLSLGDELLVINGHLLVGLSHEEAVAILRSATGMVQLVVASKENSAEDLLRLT


Key:
Experiment in all cases: holdup assay
Design in all cases: key: below the threshold = too weak to quantify, mostly under pKd 3.1 to 4
Conditions in all cases: plain residues with an end cap or a label only (N-terminal biotin on a linker: ado-ado)
Inadl_1, Q8NI35 = biological target: Inadl_1, Q8NI35
DFNB31_2, Q9P202 = biological target: T1, DFNB31_2, Q9P202
MAGI2_2, Q86UL8 = biological target: MAGI2_2, Q86UL8
DLG4_3, P78352 = biological target: DLG4_3, P78352
RADIL, Q96JH8 = biological target: T2, RADIL, Q96JH8
MAST1, Q9Y2H9 = biological target: MAST1, Q9Y2H9
DLG3_3, Q92796 = biological target: T3, DLG3_3, Q92796
HTRA2, O43464 = biological target: HTRA2, O43464
LAP2, Q96RT1 = biological target: LAP2, Q96RT1
DFNB31_3, Q9P202 = biological target: T4, DFNB31_3, Q9P202
IL16_3, Q14005 = biological target: IL16_3, Q14005
GRIP2_4, Q9C0E4 = biological target: GRIP2_4, Q9C0E4
Inadl_6, Q8NI35 = biological target: Inadl_6, Q8NI35
MPP7, Q5T2T1 = biological target: T5, MPP7, Q5T2T1
Inadl_5, Q8NI35 = biological target: Inadl_5, Q8NI35
DLG3_2, Q92796 = biological target: T6, DLG3_2, Q92796
SCRIB_3, Q14160 = biological target: SCRIB_3, Q14160
LIN7C, Q9NUP9 = biological target: T7, LIN7C, Q9NUP9
HTRA4, P83105 = biological target: T8, HTRA4, P83105
PTPN13_1, Q12923 = biological target: T9, PTPN13_1, Q12923
Inadl_4, Q8NI35 = biological target: Inadl_4, Q8NI35
NOS1, P29475 = biological target: NOS1, P29475
TX1BP3, O14907 = biological target: T10, TX1BP3, O14907
PICK1, Q9NRD5 = biological target: PICK1, Q9NRD5
MAGI2_5, Q86UL8 = biological target: MAGI2_5, Q86UL8
FRMPD2_3, Q68DX3 = biological target: FRMPD2_3, Q68DX3
PDZD2_2, O15018 = biological target: T11, PDZD2_2, O15018

Chain of GRIP2_4, Q9C0E4 (Q9C0E4 446-548): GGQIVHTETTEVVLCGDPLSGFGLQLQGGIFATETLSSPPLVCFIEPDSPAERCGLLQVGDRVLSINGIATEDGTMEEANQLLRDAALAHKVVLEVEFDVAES
Chain of Inadl_6, Q8NI35 (Q8NI35 1058-1167): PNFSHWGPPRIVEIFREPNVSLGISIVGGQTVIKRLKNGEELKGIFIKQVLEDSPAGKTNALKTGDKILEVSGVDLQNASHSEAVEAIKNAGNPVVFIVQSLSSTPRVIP
Chain of IL16_3, Q14005 (Q14005 1107-1207): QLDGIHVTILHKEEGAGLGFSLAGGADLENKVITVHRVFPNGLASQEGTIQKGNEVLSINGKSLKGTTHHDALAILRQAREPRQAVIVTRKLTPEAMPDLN
Chain of FRMPD2_3, Q68DX3 (Q68DX3 1073-1166): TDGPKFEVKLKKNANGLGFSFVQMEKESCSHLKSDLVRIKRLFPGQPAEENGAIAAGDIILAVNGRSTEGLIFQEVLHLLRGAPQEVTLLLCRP
Chain of Inadl_4, Q8NI35 (Q8NI35 547-651): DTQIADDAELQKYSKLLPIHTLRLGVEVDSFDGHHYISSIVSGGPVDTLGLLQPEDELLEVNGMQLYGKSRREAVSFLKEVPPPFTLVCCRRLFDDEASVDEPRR
Chain of SCRIB_3, Q14160 (Q14160 999-1103): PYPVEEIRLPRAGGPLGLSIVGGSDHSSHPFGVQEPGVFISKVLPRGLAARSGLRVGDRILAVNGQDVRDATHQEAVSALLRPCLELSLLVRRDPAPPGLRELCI
Chain of PICK1, Q9NRD5 (Q9NRD5 17-115): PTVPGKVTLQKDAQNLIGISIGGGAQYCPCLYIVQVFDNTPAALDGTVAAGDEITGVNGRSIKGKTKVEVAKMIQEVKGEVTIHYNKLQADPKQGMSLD
Chain of DLG4_3, P78352 (P78352 306-403): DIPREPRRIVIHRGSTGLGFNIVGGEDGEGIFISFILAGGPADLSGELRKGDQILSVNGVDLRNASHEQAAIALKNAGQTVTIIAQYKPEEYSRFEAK
Chain of Inadl_5, Q8NI35 (Q8NI35 673-780): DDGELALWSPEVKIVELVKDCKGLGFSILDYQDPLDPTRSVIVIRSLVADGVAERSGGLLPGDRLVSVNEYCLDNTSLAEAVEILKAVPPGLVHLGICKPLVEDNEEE
Chain of LAP2, Q96RT1 (Q96RT1 other isoform, or with tags, fused parts or gaps): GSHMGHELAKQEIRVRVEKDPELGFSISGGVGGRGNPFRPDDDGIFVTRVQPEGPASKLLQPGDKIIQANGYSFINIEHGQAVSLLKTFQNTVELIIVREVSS
Chain of Inadl_1, Q8NI35 (Q8NI35 113-229): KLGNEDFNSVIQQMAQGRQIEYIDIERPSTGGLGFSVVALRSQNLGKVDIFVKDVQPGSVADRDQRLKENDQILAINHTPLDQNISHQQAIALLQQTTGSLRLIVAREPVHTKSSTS
Chain of NOS1, P29475 (P29475 9-101): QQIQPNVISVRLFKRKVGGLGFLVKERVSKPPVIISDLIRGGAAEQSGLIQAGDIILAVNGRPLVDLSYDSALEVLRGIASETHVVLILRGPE
Chain of MAST1, Q9Y2H9 (Q9Y2H9 962-1065): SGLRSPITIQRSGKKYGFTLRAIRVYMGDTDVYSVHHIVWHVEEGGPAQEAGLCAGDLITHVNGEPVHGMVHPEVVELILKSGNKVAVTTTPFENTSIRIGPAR
Chain of HTRA2, O43464 (O43464 355-458): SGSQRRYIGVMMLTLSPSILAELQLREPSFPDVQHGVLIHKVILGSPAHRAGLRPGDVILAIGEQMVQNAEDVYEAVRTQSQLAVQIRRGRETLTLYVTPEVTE
Chain of MAGI2_2, Q86UL8 (Q86UL8 410-522): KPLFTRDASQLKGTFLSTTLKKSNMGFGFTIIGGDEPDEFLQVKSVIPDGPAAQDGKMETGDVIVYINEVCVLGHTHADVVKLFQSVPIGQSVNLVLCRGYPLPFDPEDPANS
Chain of MAGI2_5, Q86UL8 (Q86UL8 915-1017): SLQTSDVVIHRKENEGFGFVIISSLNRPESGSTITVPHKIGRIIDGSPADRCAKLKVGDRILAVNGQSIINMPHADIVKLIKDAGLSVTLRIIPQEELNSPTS

Binder	pKd (Inadl_1, Q8NI35)	pKd (DFNB31_2, Q9P202)	pKd (MAGI2_2, Q86UL8)	pKd (DLG4_3, P78352)	pKd (RADIL, Q96JH8)	pKd (MAST1, Q9Y2H9)	pKd (DLG3_3, Q92796)	pKd (HTRA2, O43464)	pKd (LAP2, Q96RT1)	pKd (DFNB31_3, Q9P202)	pKd (IL16_3, Q14005)	pKd (GRIP2_4, Q9C0E4)	pKd (Inadl_6, Q8NI35)	pKd (MPP7, Q5T2T1)	pKd (Inadl_5, Q8NI35)	pKd (DLG3_2, Q92796)	pKd (SCRIB_3, Q14160)	pKd (LIN7C, Q9NUP9)	pKd (HTRA4, P83105)	pKd (PTPN13_1, Q12923)	other results
VRPGVKESLV [SCN4A, P35499]	below the threshold	3.95	5.2	4.39	4.22	4.19	4.1	below the threshold	3.99	below the threshold	below the threshold	below the threshold	3.54	below the threshold	below the threshold	5	4.34	4.38	below the threshold	below the threshold	pKd (Inadl_4, Q8NI35): below the threshold; pKd (NOS1, P29475): 3.97; pKd (TX1BP3, O14907): 4.73; pKd (PICK1, Q9NRD5): below the threshold; pKd (MAGI2_5, Q86UL8): 5.03; pKd (FRMPD2_3, Q68DX3): below the threshold; pKd (PDZD2_2, O15018): 5.17
LDKESFLTWL [YAP1, P46937]	4.54	below the threshold	3.55	below the threshold	5.51	4.28	below the threshold	4.73	4.2	5.37	below the threshold	below the threshold	5.66	3.72	below the threshold	below the threshold	5.02	below the threshold	4.65	below the threshold	pKd (Inadl_4, Q8NI35): below the threshold; pKd (NOS1, P29475): 4.03; pKd (TX1BP3, O14907): 4.26; pKd (PICK1, Q9NRD5): below the threshold; pKd (MAGI2_5, Q86UL8): 4.18; pKd (FRMPD2_3, Q68DX3): below the threshold; pKd (PDZD2_2, O15018): 5.88
NRVDSKETEC [ADAM17, P78536]	below the threshold	below the threshold	below the threshold	4.42	below the threshold	3.88	3.95	below the threshold	below the threshold	3.92	below the threshold	below the threshold	below the threshold	3.65	below the threshold	4.67	4.58	3.81	below the threshold	below the threshold	pKd (Inadl_4, Q8NI35): below the threshold; pKd (NOS1, P29475): below the threshold; pKd (TX1BP3, O14907): below the threshold; pKd (PICK1, Q9NRD5): 4.08; pKd (MAGI2_5, Q86UL8): 3.92; pKd (FRMPD2_3, Q68DX3): below the threshold; pKd (PDZD2_2, O15018): below the threshold
SVISRREWYV [NECTIN3, Q9NQS3]	4.25	below the threshold	5.35	3.84	5.27	4.34	3.71	4.6	3.59	3.52	below the threshold	below the threshold	below the threshold	4.93	5.43	3.66	3.72	3.95	3.86	below the threshold	pKd (Inadl_4, Q8NI35): below the threshold; pKd (NOS1, P29475): 4.04; pKd (TX1BP3, O14907): below the threshold; pKd (PICK1, Q9NRD5): below the threshold; pKd (MAGI2_5, Q86UL8): below the threshold; pKd (FRMPD2_3, Q68DX3): 4.44; pKd (PDZD2_2, O15018): 5.08
